Publication doi:10.1101/2025.06.18.660498 (bioRxiv, 2025)
Changes are numbered by the printed parent chain. Blank lines part the entries; values can stand above or below the molecule they belong to.

How the values were obtained:
[1] = target: T1, AF9 YEATS domain (1-138) (human, UniProt P42568 1-138); test: ITC
T1 sequence (looked up): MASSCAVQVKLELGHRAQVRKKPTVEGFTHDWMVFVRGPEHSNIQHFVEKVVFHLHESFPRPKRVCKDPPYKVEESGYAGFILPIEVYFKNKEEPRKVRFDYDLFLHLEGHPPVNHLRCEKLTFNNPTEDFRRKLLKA

[2] = target: T2, AF9-F28R YEATS domain (1-138) (human, UniProt P42568 1-138, F28R); test: crystal structure
T2 sequence (looked up): T1 sequence (looked up) with F28R

[3] = target: T3, AF9 YEATS domain F59Y (human, UniProt P42568 1-138, F59Y); test: ITC
T3 sequence (looked up): T1 sequence (looked up) with F59Y

Kd [1]: 172 µM
Molecule: H3K18la peptide

Kd [1]: 4.6 µM
Molecule: H3K9ac peptide (ITC)

binding result [2]: binds
B1: H3_(1-10)K9la peptide (peptide, UniProt P68431 2-11, looked up)
peptide: ARTKQTARKS
modifications: lactyl-lysine (L-lactylation) at K9

fold reduction of affinity against WT AF9 YEATS [3]: 2 fold
Kd [1]: 74.4 µM
B2: H3K9la peptide (ITC) (peptide)
chain: ARTKQTARKS
modifications: lactyl-lysine (L-lactylation) at K9
